Reference: patent publication US20220195063A1 (BYONDIS B V, published 2022)

T1: cynomolgus SIRPα (cySIRPα), protein antigen (cynomolgus monkey, UniProt A0A2K5VYQ9 31-369)
T1 construct: Coated on the plate in ELISA
T1 sequence: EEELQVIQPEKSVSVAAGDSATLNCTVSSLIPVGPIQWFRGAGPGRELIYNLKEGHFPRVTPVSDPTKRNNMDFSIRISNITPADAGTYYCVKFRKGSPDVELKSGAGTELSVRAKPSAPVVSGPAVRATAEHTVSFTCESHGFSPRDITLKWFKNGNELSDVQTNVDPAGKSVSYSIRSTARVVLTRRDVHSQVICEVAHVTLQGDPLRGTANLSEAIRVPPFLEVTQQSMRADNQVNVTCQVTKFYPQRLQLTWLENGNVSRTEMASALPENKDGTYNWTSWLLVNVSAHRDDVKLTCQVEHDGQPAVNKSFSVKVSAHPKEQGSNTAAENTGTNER

T2: cynomolgus SIRPα expressed on cells (cynomolgus monkey, UniProt A0A2K5VYQ9 31-507)
T2 construct: whole, on cells; also called ExpiCHO-S (cySIRPα)
T2 sequence: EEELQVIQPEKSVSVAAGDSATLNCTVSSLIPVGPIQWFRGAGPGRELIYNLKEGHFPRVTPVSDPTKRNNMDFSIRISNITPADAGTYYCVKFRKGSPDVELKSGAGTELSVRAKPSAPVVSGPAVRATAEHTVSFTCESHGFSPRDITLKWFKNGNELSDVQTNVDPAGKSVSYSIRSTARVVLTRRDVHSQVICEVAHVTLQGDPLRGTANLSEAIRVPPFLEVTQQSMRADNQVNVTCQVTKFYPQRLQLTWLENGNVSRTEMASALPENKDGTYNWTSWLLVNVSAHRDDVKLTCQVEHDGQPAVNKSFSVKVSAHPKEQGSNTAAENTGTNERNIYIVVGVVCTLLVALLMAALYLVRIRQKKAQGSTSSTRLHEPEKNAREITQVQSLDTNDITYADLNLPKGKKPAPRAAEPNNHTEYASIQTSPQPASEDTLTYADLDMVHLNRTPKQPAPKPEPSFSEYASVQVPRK


What was measured:
human SIRPγ (huSIRPγ) [1] = biological target: T3, human SIRPγ (huSIRPγ) (human, UniProt Q9P1W8 29-360, limits assumed, biotinylated in the SPR assay); assay: SPR, biotinylated antigen captured, 25 C
T3 construct: Coated on the plate in ELISA, biotinylated and captured in SPR
Description: (§1) Surface Plasmon Resonance (SPR) assay: Affinity analysis was performed by single cycle kinetics analysis on a Surface Plasmon Resonance apparatus (Biacore T200 system, GE Life Sciences) at 25° C. Biotinylated SIRP antigens were captured on the surface of a chip suitable for biotinylated molecules (Sensor Chip CAP, GE Life Sciences) by injecting 5 μg/ml of the SIRP antigen in running buffer (10 mM HEPES buffer at pH 7.4 with 150 mM NaCl, 3 mM EDTA and 0.005% v/v polyoxyethylene (20) sorbitan monolaurate (Surfactant P20) for 60 sec at 10 μL/min after injection of a streptavidin conjugate (20× diluted biotin CAPture reagent, GE Life Sciences) for 60 sec at 10 μl/min. Baseline stabilization was set at 1 min after which five increasing concentrations of an anti-SIRP antibody in running buffer (10 mM HEPES buffer at pH 7.4 with 150 mM NaCl, 3 mM EDTA and 0.005% v/v polyoxyethylene (20) sorbitan monolaurate) were injected. For each step an association time of 150 sec was used, followed by a dissociation time of 1200 sec at the highest concentration only, all at a flow rate of 30 μL/min. Regeneration was performed with 6 M guanidine-HCl, 0.25 M NaOH solution (60 sec with flow rate of 30 μL/min). Double blank subtraction was performed on the observed sensorgrams using a non anti-SIRP (blank) immobilized reference flow channel and running buffer injection. Sensorgrams were fitted with a 1:1 Langmuir model for all tested anti-SIRP antibodies. The kinetic parameters (kₐ, kd and KD) were calculated using the Biacore T200 evaluation software (v3.1).

[2] = biological target: T4, human SIRPα1 (huSIRPα1), protein antigen (human, UniProt P78324 31-370, limits assumed, biotinylated in the SPR assay); assay: SPR, biotinylated antigen captured, 25 C
T4 construct: Coated on the plate in ELISA, biotinylated and captured in SPR; also called v2
Description: as §1

[3] = biological target: human SIRPαBIT (huSIRPαBIT), protein antigen (human) (UniProt P78324); assay: SPR, biotinylated antigen captured, 25 C
[4] = biological target: human SIRPαBIT (huSIRPαBIT), protein antigen (human) (UniProt P78324); assay: ELISA, antigen coated
[5] = biological target: human SIRPβ1v1 (huSIRPβ1v1) (human) (UniProt O00241); assay: ELISA, antigen coated
[6] = biological target: human SIRPαBIT expressed on cells (human) (UniProt P78324); assay: flow cytometry, U937 cells
[7] = biological target: T5, human SIRPβ1v2 (huSIRPβ1v2) (human, UniProt Q5TFQ8 30-371); assay: ELISA, antigen coated
T5 construct: Coated on the plate in ELISA; Only the Ensembl protein number is printed; also called huSIRPß1v2
Description: (§2) ELISA assay: Solutions of huSIRPα₁, huSIRPαBIT, huSIRPβ₁ᵥ₁, huSIRPβ₁ᵥ₂, huSIRPγ and cySIRPα in phosphate buffered saline (PBS) were each added to a multiple well black polystyrene plate for ELISA and allowed to adhere for 1 h at RT. Unbound protein was removed with three washing steps using standard washing buffer. Subsequently, blocking buffer was added to the wells. After 1 h incubation at RT, the wells were washed three times with standard washing buffer. The antibodies in buffer at various concentrations were added to the wells and incubated at RT for 1 h. Unbound antibodies were removed with three washing steps using standard washing buffer. Goat anti human IgG (Fab′)₂:horse radish peroxidase (HRP) in buffer was added to the wells and incubated at RT for 1 h. 3,3′,5,5′-Tetramethylbenzidine (TMB) was added and after sufficient colour development HCl was added. Absorbance was read at 450 nm/620 nm.

human SIRPγ (huSIRPγ) [8] = biological target: T3, human SIRPγ (huSIRPγ); assay: ELISA, antigen coated
Description: as §2

[9] = biological target: T1, cynomolgus SIRPα (cySIRPα), protein …; assay: ELISA, antigen coated
Description: as §2

[10] = biological target: T4, human SIRPα1 (huSIRPα1), protein antigen; assay: ELISA, antigen coated
Description: as §2

[11] = biological target: human SIRPαBIT expressed on cells (human) (UniProt P78324); assay: flow cytometry, ExpiCHO-S cells
[12] = biological target: T2, cynomolgus SIRPα expressed on cells; assay: flow cytometry, ExpiCHO-S cells
Description: Flow Cytometry: U937 cells endogenously expressing human SIRPαBIT antigen and cells derived from a non-engineered subclone that has been screened and isolated from CHO-S Chinese hamster ovary cells (ExpiCHO-S) cells expressing human SIRPα₁, SIRPαBIT or cySIRPα antigen (100,000 cells/well in a 96-well plate) were washed three times with ice-cold FACS buffer (1×PBS (LONZA) containing 0.2% v/w BSA (Sigma-Aldrich, St. Louis, Mo.) and 0.02% v/w NaN₃ (Sigma-Aldrich), followed by the addition of a concentration range of each primary mAb (50 μL/well) diluted in ice-cold FACS buffer. After an incubation time of 30 min at 4° C., the cells were washed three times with ice-cold FACS buffer and 50 μL/well secondary mAb (AffiniPure F(ab′)₂ fragment Goat-anti-human IgG-APC, 1:6,000 dilution, Jackson Immuno Research) was added. After 30 min at 4° C., cells were washed twice and resuspended in 150 μL FACS buffer. Fluorescence intensities were determined by flow cytometry (BD FACSVerse, Franklin Lakes, N.J.) and indicated as the median fluorescence intensity (MFI-Median) for U937 cells and ExpiCHO-S cells. Curves were fitted by nonlinear regression using the sigmoidal dose-response equation with variable slope (four parameters) in GraphPad Prism (version 7.02 for Windows, GraphPad, San Diego, Calif.). EC₅₀ values were calculated as the concentration in μg/mL that gives a response half way between bottom and top of the curve, when using a 4-parameter logistic fit.

Sequence of human SIRPαBIT expressed on cells (human) (P78324 31-504): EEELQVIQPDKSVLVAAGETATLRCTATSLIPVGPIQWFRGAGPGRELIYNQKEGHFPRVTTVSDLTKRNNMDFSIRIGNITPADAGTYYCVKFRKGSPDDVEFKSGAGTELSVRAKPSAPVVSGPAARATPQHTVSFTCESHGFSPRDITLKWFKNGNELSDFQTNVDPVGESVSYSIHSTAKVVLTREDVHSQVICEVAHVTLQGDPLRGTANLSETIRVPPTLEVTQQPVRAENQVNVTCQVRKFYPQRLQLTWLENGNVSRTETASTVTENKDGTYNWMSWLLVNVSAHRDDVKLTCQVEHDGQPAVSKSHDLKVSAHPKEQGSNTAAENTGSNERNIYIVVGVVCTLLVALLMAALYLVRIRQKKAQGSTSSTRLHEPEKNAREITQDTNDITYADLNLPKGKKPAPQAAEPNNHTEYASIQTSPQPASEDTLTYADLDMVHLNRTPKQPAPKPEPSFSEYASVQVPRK
T5 sequence (Q5TFQ8 30-371 limits assumed): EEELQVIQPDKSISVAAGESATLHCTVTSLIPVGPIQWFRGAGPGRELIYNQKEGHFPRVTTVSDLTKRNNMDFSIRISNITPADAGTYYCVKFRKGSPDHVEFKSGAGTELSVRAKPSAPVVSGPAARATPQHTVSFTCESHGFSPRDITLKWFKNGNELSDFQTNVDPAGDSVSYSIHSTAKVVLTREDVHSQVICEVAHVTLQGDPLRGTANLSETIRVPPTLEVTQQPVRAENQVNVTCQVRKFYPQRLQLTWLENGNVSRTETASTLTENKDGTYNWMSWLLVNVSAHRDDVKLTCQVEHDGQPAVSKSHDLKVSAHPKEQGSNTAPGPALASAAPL
Sequence of human SIRPβ1v1 (huSIRPβ1v1) (human) (O00241 30-371): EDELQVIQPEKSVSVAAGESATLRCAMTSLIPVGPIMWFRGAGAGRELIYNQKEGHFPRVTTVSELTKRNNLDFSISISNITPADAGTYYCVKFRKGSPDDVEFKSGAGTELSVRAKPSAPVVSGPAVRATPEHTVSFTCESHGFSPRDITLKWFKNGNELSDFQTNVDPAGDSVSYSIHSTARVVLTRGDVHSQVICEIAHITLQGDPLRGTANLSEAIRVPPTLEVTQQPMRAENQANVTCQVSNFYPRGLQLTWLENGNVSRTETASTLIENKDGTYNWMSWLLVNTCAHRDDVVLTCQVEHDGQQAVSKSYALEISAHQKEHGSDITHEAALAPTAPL
T4 sequence (P78324 other isoform, or with tags, fused parts or gaps limits assumed): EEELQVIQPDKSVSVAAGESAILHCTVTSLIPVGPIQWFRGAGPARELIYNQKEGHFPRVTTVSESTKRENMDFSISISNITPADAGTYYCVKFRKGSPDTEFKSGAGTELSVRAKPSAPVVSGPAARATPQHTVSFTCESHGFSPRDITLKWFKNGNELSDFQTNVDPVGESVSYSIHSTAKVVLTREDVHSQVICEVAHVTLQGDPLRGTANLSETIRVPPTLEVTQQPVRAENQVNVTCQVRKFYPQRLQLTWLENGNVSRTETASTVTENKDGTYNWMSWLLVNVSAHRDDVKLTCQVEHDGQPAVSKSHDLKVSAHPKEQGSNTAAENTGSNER
Sequence of human SIRPαBIT (huSIRPαBIT), protein antigen (human) (P78324 31-370): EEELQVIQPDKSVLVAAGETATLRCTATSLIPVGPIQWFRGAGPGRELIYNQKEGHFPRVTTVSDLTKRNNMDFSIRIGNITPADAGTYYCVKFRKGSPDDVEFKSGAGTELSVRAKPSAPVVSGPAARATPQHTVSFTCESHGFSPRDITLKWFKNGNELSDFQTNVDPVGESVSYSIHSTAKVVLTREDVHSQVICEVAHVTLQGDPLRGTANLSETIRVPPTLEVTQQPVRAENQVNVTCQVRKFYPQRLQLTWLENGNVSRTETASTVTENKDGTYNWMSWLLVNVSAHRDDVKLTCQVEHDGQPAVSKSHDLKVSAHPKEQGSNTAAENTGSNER
T3 sequence (Q9P1W8 29-360 limits assumed): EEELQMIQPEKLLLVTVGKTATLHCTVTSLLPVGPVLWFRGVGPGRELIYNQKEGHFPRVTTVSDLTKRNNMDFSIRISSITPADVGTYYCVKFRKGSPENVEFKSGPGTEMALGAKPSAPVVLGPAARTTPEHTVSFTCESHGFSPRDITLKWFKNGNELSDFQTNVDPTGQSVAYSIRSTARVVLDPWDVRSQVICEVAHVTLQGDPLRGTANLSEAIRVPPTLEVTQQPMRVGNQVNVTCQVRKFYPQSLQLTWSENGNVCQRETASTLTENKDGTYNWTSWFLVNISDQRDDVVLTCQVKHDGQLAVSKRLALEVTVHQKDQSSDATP

| Kd (human SIRPγ (huSIRPγ) [1]) | Kd [2] | Kd [3] | EC50 [4] | EC50 [5] | EC50 [6] | EC50 [7] | EC50 (human SIRPγ (huSIRPγ) [8]) | EC50 [9] | EC50 [10] | EC50 [11] | EC50 [12] | Molecule |
| --- | --- | --- | --- | --- | --- | --- | --- | --- | --- | --- | --- | --- |
| 49 nM | 2.2 nM | 2.6 nM |  |  |  |  |  |  |  |  |  | SE5A5 (antibody) |
|  |  |  | 0.026 µg/mL | > 100 µg/mL | 0.11 µg/mL | 0.047 µg/mL | > 100 µg/mL | 0.03 µg/mL | 0.023 µg/mL |  |  | anti-SIRPα antibody 9 (antibody, human IgG1, kappa, L234A L235A, V domains shown, Rabbit variable regions on human IgG1 LALA / kappa) VH: QSMEESGGRLVTPGTPLTLTCTASGFSLSNYGVSWVRQAPGKGLEWIGIIYGGSDITAYASWAKGRFTISKTSTTVDLTITSPTTEDTATYFCAKSYTNGMDYYNIWGPGTLVTVSL VL: AFDLTQTPSSVEAPVGGTVIIKCQASQSISSYLAWYQQKPGQPPKLLIYSASTLASGVSSRFKGSGSETQFPLTISDLESADAATYYCQSYYGSRSNVFGGGTEVVVKR |
|  |  |  | 0.021 µg/mL |  |  | 0.058 µg/mL | 0.043 µg/mL | 0.305 µg/mL | 0.039 µg/mL |  |  | anti-SIRPα antibody 1 (antibody, human IgG1, kappa, L234A L235A, V domains shown, Rabbit variable regions on human IgG1 LALA / kappa) VH: QSVEESGGRLVTPGTPLTLTCTVSGIDLSSYAMSWVRQAPGKGLEWIGIISSGGITYYASWAKGRFTISKTSTTVDLKIPSPTTEDTATYFCARSLWAASNYYMALWGPGTLVTVSS VL: AIKMTQTPASVSAAVGGTVSINCQASEDIESYLAWYQQKPGQPPKLLIYRASTLASGVSSRFKGSGSGTQFTLTISDLESADAATYYCLGDYYSSSGDTGAFGGGTEVVVKR |
| < 0.01 nM | < 0.01 nM | < 0.01 nM |  |  |  |  |  |  |  |  |  | KWAR23 mouse IgG2a (antibody, V domains shown) VH: EVQLQQSGAELVKPGASVKLSCTASGFNIKDYYIHWVQQRTEQGLEWIGRIDPEDGETKYAPKFQDKATITADTSSNTAYLHLSSLTSEDTAVYYCARWGAYWGQGTLVTVSS VL: QIVLTQSPAIMSASPGEKVTLTCSASSSVSSSYLYWYQQKPGSSPKLWIYSTSNLASGVPARFSGSGSGTSYSLTISSMEAEDAASYFCHQWSSYPRTFGAGTKLELK |
|  |  |  | 0.009 µg/mL | 0.013 µg/mL | 0.25 µg/mL | 0.017 µg/mL | 0.034 µg/mL | 0.011 µg/mL | 0.009 µg/mL |  |  | 29AM4-5huIgG1LALA (antibody, V domains shown, HAVT20 leader left out) VH: EVQLVESGGGLVQPGGSLRLSCAASGFNISYYFIHWVRQAPGKGLEWVASVYSSFGYTYYADSVKGRFTISADTSKNTAYLQMNSLRAEDTAVYYCARFTFPGLFDGFFGAYLGSLDYWGQGTLVTVSS VL: DIQMTQSPSSLSASVGDRVTITCRASQSVSSAVAWYQQKPGKAPKLLIYSASSLYSGVPSRFSGSRSGTDFTLTISSLQPEDFATYYCQQAVNWVGALVTFGQGTKVEIKR |
|  |  |  | 0.02 µg/mL | > 100 µg/mL |  | 0.024 µg/mL | > 100 µg/mL | 0.033 µg/mL | 0.021 µg/mL |  |  | anti-SIRPα antibody 6 (antibody, human IgG1, kappa, L234A L235A, V domains shown, Rabbit variable regions on human IgG1 LALA / kappa) VH: QSVEESGGRLVTPGTPLTLTCTVSGIDLSSYTMTWVRQAPGKGLEWIGIIYAGGSTAYASWAKGRFTISKTSTTVDLKITSPTTEDTATYFCARSSSDGYDYFNIWGPGTLVTVSL VL: GVVMTQTPSSVSAAVGGTVTINCQASQSIGSWLAWYQQKPGQPPKLLIYQASKLASGVPSRFSGRGSGTHFTLTISDVQSDDAATYYCQQTVTAASNVDNAFGGGTEVVVKR |
|  |  | < 0.01 nM | 0.02 µg/mL | 0.014 µg/mL | 0.17 µg/mL | > 100 µg/mL | > 100 µg/mL | 0.335 µg/mL |  | 0.21 µg/mL | 0.07 µg/mL | anti-SIRPα antibody 7 (antibody, human IgG1, kappa, L234A L235A, V domains shown, Chimeric: rabbit variable regions on human IgG1 LALA / kappa; also called chimeric antibody 7) VH: RSVEESGGRLVTPGTPLTLTCTVSGFSLSSHGISWVRQAPGKGLEYIGTIGTGVITYFASWAKGRFTGSKTSTTVDLKITSPTTEDTATYFCARGSAWNDPFDPWGPGTLVTVSS VL: ALVMTQTPASVSAAVGGTVTTKCQASQSVYGNNDLAWYQHKPGQPPKLLIYLASTLATGVPSRFSGSGSGTQFTLTITGVQSDDAATYYCLGGGDDEADNVFGGGTEVVVKR |
|  |  |  |  |  | 0.16 µg/mL |  |  |  |  |  |  | anti-SIRPα antibody 15 humanized (antibody, human IgG1, kappa, L234A L235A, V domains shown) VH: RSVEESGGRLVTPGTPLTLTCTVSGFSLSSHGISWVRQAPGKGLEYIGTIGTGVITYFASWAKGRFTGSKTSTTVDLKITSPTTEDTATYFCARGSAWNDPFDPWGPGTLVTVSS VL: ELVMTQSPSSLSASVGDRVTITCQASQSVYGNNDLAWYQQKPGEAPKLLIYLASTLATGVPSRFSGSGSGTDFTLTISGLQSEDFATYYCLGGGDDEADNVFGQGTKVEIKR |
|  |  |  |  |  | 0.23 µg/mL |  |  |  |  |  |  | anti-SIRPα antibody 16 humanized (antibody, human IgG1, kappa, L234A L235A, V domains shown) VH: RSVEESGGRLVTPGTPLTLTCTVSGFSLSSHGISWVRQAPGKGLEYIGTIGTGVITYFASWAKGRFTGSKTSTTVDLKITSPTTEDTATYFCARGSAWNDPFDPWGPGTLVTVSS VL: DIEMTQSPSSVSASVGDRVTLTCQASQSVYGNNDLAWYQQKPGQAPKLLIYLASTLATGVPSRFSGSGSGTDFTLTISSLQPEDFATYYCLGGGDDEADNVFGGGTKVEIKR |
